These substances were tested on UCM12.
Sequence of UCM12 (chain, as listed by the source, chain 1 of 3, other chains not shown): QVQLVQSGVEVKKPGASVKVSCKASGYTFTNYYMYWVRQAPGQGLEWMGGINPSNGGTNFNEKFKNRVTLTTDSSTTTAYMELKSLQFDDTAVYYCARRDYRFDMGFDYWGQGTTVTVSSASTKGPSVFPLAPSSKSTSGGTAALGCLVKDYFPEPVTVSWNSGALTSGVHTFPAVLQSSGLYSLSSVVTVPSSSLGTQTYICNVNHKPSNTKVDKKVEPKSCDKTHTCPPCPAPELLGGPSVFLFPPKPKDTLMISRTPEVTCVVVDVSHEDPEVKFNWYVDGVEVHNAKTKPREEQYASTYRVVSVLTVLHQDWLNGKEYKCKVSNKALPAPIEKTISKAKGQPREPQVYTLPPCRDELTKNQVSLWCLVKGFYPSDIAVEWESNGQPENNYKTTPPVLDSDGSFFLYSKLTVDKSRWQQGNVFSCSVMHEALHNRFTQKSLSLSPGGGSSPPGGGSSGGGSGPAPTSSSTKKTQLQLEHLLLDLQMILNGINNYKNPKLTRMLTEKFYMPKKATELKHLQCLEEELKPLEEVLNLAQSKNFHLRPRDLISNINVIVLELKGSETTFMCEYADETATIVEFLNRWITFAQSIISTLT
Sequence of UCM12 (chain, as listed by the source, chain 2 of 3, other chains not shown): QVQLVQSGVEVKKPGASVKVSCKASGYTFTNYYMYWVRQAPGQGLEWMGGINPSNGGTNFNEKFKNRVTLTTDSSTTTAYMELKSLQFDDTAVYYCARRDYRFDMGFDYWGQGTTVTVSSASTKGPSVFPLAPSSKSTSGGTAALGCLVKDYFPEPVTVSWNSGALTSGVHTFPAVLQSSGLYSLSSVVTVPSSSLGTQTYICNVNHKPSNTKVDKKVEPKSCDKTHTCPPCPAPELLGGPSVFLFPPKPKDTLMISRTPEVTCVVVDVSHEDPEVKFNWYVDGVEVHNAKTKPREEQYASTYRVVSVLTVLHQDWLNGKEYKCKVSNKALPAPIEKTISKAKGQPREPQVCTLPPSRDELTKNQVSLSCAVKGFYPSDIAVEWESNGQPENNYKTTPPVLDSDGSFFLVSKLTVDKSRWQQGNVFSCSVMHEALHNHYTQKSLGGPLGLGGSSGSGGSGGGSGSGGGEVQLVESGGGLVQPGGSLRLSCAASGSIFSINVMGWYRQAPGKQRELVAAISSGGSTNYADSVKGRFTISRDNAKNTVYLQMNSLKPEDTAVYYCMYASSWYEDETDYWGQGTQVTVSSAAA
Sequence of MMP9 (chain, as listed by the source): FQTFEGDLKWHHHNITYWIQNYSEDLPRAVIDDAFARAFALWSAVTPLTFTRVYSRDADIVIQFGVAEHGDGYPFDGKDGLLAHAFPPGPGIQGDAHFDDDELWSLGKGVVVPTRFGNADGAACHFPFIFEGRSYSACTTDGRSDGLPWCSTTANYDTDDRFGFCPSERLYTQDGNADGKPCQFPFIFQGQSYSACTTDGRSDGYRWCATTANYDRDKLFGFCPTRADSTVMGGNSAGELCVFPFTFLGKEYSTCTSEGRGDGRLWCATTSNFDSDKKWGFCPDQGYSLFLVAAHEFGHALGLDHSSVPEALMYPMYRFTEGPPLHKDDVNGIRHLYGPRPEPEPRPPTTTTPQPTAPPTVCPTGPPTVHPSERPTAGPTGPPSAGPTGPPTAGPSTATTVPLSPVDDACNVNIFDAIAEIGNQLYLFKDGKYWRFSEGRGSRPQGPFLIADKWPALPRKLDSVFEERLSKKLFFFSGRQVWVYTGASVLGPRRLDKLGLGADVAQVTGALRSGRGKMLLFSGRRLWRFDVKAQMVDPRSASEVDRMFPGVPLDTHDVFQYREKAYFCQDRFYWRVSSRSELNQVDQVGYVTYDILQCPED
Sequence of Cathepsin L (chain, as listed by the source): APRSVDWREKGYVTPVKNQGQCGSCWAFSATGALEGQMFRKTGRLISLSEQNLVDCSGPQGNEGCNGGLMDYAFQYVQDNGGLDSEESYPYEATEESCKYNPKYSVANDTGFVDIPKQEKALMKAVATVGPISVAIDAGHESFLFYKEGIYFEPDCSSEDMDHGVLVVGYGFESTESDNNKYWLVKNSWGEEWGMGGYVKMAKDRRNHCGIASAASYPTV
Sequence of MMP8 (chain, as listed by the source): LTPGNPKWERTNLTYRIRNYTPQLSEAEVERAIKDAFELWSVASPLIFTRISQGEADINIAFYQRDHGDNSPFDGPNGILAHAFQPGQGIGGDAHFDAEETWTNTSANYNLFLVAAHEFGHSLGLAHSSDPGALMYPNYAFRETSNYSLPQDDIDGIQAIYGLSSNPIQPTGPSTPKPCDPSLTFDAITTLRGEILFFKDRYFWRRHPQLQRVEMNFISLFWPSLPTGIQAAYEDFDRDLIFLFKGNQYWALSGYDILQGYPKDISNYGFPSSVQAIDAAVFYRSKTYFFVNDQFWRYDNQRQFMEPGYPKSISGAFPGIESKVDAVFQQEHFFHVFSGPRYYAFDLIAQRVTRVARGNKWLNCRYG
Cathepsin L was tested, and the kcat/Km was 14000 M⁻¹ s⁻¹. Work on MMP9 yielded a kcat/Km of 7900 M⁻¹ s⁻¹. Work on MMP8 yielded a kcat/Km of 810 M⁻¹ s⁻¹.

Reference: patent US20250250314
